Data reported in PMC3536784, “Structural Characterization of Pandoraea pnomenusa B-356 Biphenyl Dioxygenase Reveals Features of Potent Polychlorinated Biphenyl-Degrading Enzymes” (PLoS ONE, 2013).

Tested on: c1ccc(-c2ccccc2)cc1
Assay: purified protein
Settings: apparent, air-saturated 50 mM MES pH 6.0, NADH 123 µM, BphG B356 and BphF LB400 as electron transfer partners, Fe(II) added, well coupled
Description: O2 consumption, Clark-type oxygen electrode on BPDOB356 (biphenyl dioxygenase, oxygenase component BphAE)

## BPDOB356 (biphenyl dioxygenase, oxygenase component BphAE) (Comamonas testosteroni; M231T)
  Km: 11.1 (3.1) µM
  kcat: 2.9 s⁻¹
  kcat/Km: 300000 M⁻¹ s⁻¹

## BPDOB356 (biphenyl dioxygenase, oxygenase component BphAE) (Comamonas testosteroni; M231A)
  Km: 9.4 (1.9) µM
  kcat: 2.1 s⁻¹
  kcat/Km: 200000 M⁻¹ s⁻¹
